Numbering of substitutions follows the chain as printed. Numbers in names are those of the source. Each block holds one binder with its values, some of them ahead of it.
How the values were obtained:
[1] = target: T1, bovine pancreatic trypsin inhibitor (bovine, UniProt P00974 36-93); test: scintillation proximity assay with 125I-BPTI
[2] = target: T1, bovine pancreatic trypsin inhibitor; test: not described

binding result [1]: binds
B1: native human heparin-binding protein (other)
chain: IVGGRKARPRQFPFLASIQNQGRHFCGGALIHARFVMTAASCFQSQNPGVSTVVLGAYDLRRRERQSRQTFSISSMSENGYDPQQNLNDLMLLQLDREANLTSSVTILPLPLQNATVEAGTRCQVAGWGSQRSGGRLSRFPRFVNVTVTPEDQCRPNNVCTGVLTRRGGICNGDGGTPLVCEGLAHGVASFSLGPCGRGPDFFTRVALFRDWIDGVLNNPGP
notes: also called HBP; hHBP

binding result [2]: no binding
B2: HBP mutant (G175N) (other)
chain: B1 chain with G175N

binding result [1]: binds
B3: [R23S,F25E]HBP (other)
chain: B1 chain with R23S, F25E
notes: Expressed in sf9 insect cells; also called [R23S,F25E]HBP mutant

binding result [1]: no binding
B4: [G175Q]HBP (other)
chain: B1 chain with G175Q
notes: also called [G175Q]HBP mutant

Reference: patent EP1674110A1 (NOVO NORDISK A/S, dated 2000)
